Test results taken from patent publication US20170281720A1 (published 2017).
“And” between values parts separate entries of the source, which are not always exact repeats. Identical values can stand only once. Bridges are numbered along the chain shown (N, C = ends). [ ]: non-standard residue; d: D form. The star is where a group is joined. 5‑TAMRA = CN(C)c1ccc2c(-c3ccc(C(=O)*)cc3C(=O)[O-])c3ccc(N(C)C)cc3[o+]c2c1; NMeY = CN[C@@H](Cc1ccc(O)cc1)C(=O)O; Palmitoyl = CCCCCCCCCCCCCCCC(=O)*; R8 = C=CCCCCCC[C@@](C)(N)C(=O)O; Cba = N[C@@H](CC1CCC1)C(=O)O; S5 = C=CCCC[C@](C)(N)C(=O)O; Nle = CCCC[C@H](N)C(=O)O; G1a = not defined here; βAla = NCCC(=O)O

Assays:
MDMX (In-house, 40 kD) [1] = molecular target: T1, MDMX (In-house, 40 kD) (UniProt O15151); experiment: competitive fluorescence polarization on MDMX against FAM-labeled linear peptide; grade, scale in paragraph 462
T1 sequence (looked up): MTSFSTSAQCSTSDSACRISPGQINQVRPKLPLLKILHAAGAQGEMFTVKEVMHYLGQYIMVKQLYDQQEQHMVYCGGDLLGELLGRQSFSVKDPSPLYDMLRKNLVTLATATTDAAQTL

MDM2 (In-house, 41 kD) [2] = molecular target: MDM2 (In-house, 41 kD) (UniProt Q00987); experiment: competitive fluorescence polarization on MDM2 against FAM-labeled linear peptide; grade, scale in paragraph 462
MDMX (In-house, 40 kD) [3] = molecular target: T2, MDMX (In-house, 40 kD) (UniProt O15151 1-120, limits assumed); experiment: competitive FP vs FAM labeled linear peptide; column Ki (MDMX); + = >1000 nM by the table's scale
T2 construct: Only 'MDMX (In-house, 40 kD)' is said of the protein in the FP assays; also called MDM4
T2 sequence (looked up): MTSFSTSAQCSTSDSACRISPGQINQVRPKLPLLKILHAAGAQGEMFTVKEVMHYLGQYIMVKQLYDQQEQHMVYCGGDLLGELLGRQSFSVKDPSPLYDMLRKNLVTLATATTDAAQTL

MDMX (In-house, 40 kD) [4] = molecular target: T2, MDMX (In-house, 40 kD); experiment: competitive FP vs FAM labeled linear peptide; column IC50 (MDMX); + = >1000 nM by the table's scale
MDMX (In-house, 40 kD) [5] = molecular target: T3, MDMX (In-house, 40 kD) (UniProt O15151 1-120, limits assumed); experiment: FP competition on MDMX vs FAM-labeled linear peptide; graded Ki, + = >1000 nM
T3 construct: Construct not described beyond 'In-house, 40 kD'; also called MDM4
T3 sequence (looked up): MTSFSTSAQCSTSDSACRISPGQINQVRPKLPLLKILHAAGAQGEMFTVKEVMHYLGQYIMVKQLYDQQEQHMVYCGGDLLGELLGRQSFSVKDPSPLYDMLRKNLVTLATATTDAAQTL

MDMX (In-house, 40 kD) [6] = molecular target: T3, MDMX (In-house, 40 kD); experiment: FP competition on MDMX vs FAM-labeled linear peptide; graded IC50, + = >1000 nM
MDM2 (In-house, 41 kD) [7] = molecular target: T4, MDM2 (In-house, 41 kD) (UniProt Q00987 1-125, limits assumed); experiment: competitive fluorescence polarization on MDM2 against FAM-labeled linear peptide; grade, scale in paragraph 462
T4 construct: Only 'In-house, 41 kD' is said of the protein used in the fluorescence polarization assays; also called HDM2

MDMX (In-house, 40 kD) [8] = molecular target: T5, MDMX (In-house, 40 kD) (UniProt O15151 1-120, limits assumed); experiment: competitive fluorescence polarization on MDMX against FAM-labeled linear peptide; grade, scale in paragraph 462
T5 construct: Only 'In-house, 40 kD' is said of the protein used in the fluorescence polarization assays; also called MDM4
T5 sequence (looked up): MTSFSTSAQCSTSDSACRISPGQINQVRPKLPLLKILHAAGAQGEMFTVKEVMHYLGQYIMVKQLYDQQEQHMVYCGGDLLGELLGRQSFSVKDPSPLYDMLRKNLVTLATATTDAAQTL

T4 sequence (Q00987 1-125 limits assumed): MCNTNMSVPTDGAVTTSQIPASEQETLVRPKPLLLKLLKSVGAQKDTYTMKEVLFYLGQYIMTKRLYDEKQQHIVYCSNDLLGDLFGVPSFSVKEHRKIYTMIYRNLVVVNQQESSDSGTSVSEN
Sequence of MDM2 (In-house, 41 kD) (UniProt Q00987) (Q00987 1-125 limits assumed): as above

SP757, Ac-tawy$s8nf4CF3ek11$r5a-NH2 (peptide)
IC50 (MDMX (In-house, 40 kD) [1]): > 1000 nM
IC50 (MDM2 (In-house, 41 kD) [2]): < 10 nM

SP756, Ac-t$s8wyanf4CF3e$r511r-NH2 (peptide)
IC50 (MDMX (In-house, 40 kD) [1]): > 1000 nM
IC50 (MDM2 (In-house, 41 kD) [2]): > 10 nM and < 100 nM

SP755, Ac-tawyanf4CF3e$r511r$r5a-NH2 (peptide)
IC50 (MDMX (In-house, 40 kD) [1]): > 1000 nM
IC50 (MDM2 (In-house, 41 kD) [2]): < 10 nM

SP758, Ac-tawya$s8f4CF3e1d1r$r5a-NH2 (peptide)
IC50 (MDMX (In-house, 40 kD) [1]): > 1000 nM
IC50 (MDM2 (In-house, 41 kD) [2]): > 10 nM and < 100 nM

SP753, Ac-tawy$r5nf4CF3e$r511r-NH2 (peptide)
IC50 (MDMX (In-house, 40 kD) [1]): > 1000 nM
IC50 (MDM2 (In-house, 41 kD) [2]): > 10 nM and < 100 nM

SP752, Ac-t$r5wya$r5f4CF3e1d1r-NH2 (peptide)
IC50 (MDMX (In-house, 40 kD) [1]): > 1000 nM
IC50 (MDM2 (In-house, 41 kD) [2]): > 100 nM and < 1000 nM

SP754, Ac-tawya$r5f4CF3ek$r51r-NH2 (peptide)
IC50 (MDMX (In-house, 40 kD) [1]): > 1000 nM
IC50 (MDM2 (In-house, 41 kD) [2]): > 100 nM and < 1000 nM

B1: SP384 (peptide)
peptide: Ac-LTF[R8]A[NMeY]WAQL[S5]AA[Nle]A-NH2
modifications: staple 4-11; not fully specified
notes: Stapled peptidomimetic macrocycle, single isomer iso2; also called Ac-LTF$r8ANmYWAQL$AANleA-NH2
Ki (MDMX (In-house, 40 kD) [3]): > 1000 nM
IC50 (MDMX (In-house, 40 kD) [4]): > 1000 nM

Palmitoyl-ETF[R8]EYWAQ[Cba][S5]SAA-NH2 (staple 4-11) [SP250, Pam-ETF$r8EYWAQCba$SAA-NH2]
Ki (MDMX (In-house, 40 kD) [5]): > 1000 nM
IC50 (MDMX (In-house, 40 kD) [6]): > 1000 nM

B2: SP612, Ac-LTF$r8EYWACitL$AAAAAa-NH2 (peptide)
peptide: LTFAEYWAXLAAAAAAA
modifications: not fully specified; N-terminal acetyl; $r8 (alpha-Me R8-octenyl-alanine) at 4 crosslinked to $ (alpha-Me S5-pentenyl-alanine) at 11; Cit (citrulline) at 9; D-alanine at 17; C-terminal amide
notes: stapled peptidomimetic macrocycle
Ki (MDM2 (In-house, 41 kD) [7]): ≤ 10 nM

B3: SP716, Ac-LTF$r8EYWAQCba$AAA-NH2 (iso2) (peptide)
peptide: Ac-LTF[R8]EYWAQ[Cba][S5]AAA-NH2
modifications: staple 4-11; not fully specified
notes: stapled peptidomimetic macrocycle, isomer iso2
Ki (MDM2 (In-house, 41 kD) [7]): ≤ 10 nM
Ki (MDMX (In-house, 40 kD) [8]): ≤ 10 nM

B4: SP686, 5-TAMRA-BaLTF$r8EYWAQCba$SAA-NH2 (peptide)
peptide: {5‑TAMRA}-[βAla]LTF[R8]EYWAQ[Cba][S5]SAA-NH2
modifications: staple 5-12
SMILES: CC(C)C[C@H](NC(=O)CCNC(=O)c1ccc(-c2c3ccc(N(C)C)cc3[o+]c3cc(N(C)C)ccc23)c(C(=O)[O-])c1)C(=O)N[C@H](C(=O)N[C@@H](Cc1ccccc1)C(=O)N[C@]1(C)CCCCCCC=CCCC[C@@](C)(C(=O)N[C@@H](CO)C(=O)N[C@@H](C)C(=O)N[C@@H](C)C(N)=O)NC(=O)[C@H](CC2CCC2)NC(=O)[C@H](CCC(N)=O)NC(=O)[C@H](C)NC(=O)[C@H](Cc2c[nH]c3ccccc23)NC(=O)[C@H](Cc2ccc(O)cc2)NC(=O)[C@H](CCC(=O)O)NC1=O)[C@@H](C)O
notes: stapled peptidomimetic macrocycle with fluorescent label
Ki (MDM2 (In-house, 41 kD) [7]): ≤ 10 nM

Ac-LTF[R8]EYWAQ[Cba][S5]S-NH2 (staple 4-11, stapled peptidomimetic macrocycle) [SP595, Ac-LTF$r8EYWAQCba$S-NH2]
Ki (MDM2 (In-house, 41 kD) [7]): > 1000 nM

Ac-LTF[R8][G1a]YWAQL[S5]AAAAA[dA]-NH2 (staple 4-11; not fully specified; reading uncertain, stapled peptidomimetic macrocycle) [SP602, Ac-LTF$r8G1aYWAQL$AAAAAa-NH2]
Ki (MDM2 (In-house, 41 kD) [7]): ≤ 10 nM
Ki (MDMX (In-house, 40 kD) [8]): ≤ 10 nM

Ac-LTF[R8]EYWANL[S5]AAAAA[dA]-NH2 (staple 4-11, stapled peptidomimetic macrocycle) [SP611, Ac-LTF$r8EYWANL$AAAAAa-NH2]
Ki (MDM2 (In-house, 41 kD) [7]): ≤ 10 nM
